Source: US20030086946A1

Target: purified human folate receptor (hFR) (human) (UniProt P15328)
UniProt P15328, sequence (P15328 25-234): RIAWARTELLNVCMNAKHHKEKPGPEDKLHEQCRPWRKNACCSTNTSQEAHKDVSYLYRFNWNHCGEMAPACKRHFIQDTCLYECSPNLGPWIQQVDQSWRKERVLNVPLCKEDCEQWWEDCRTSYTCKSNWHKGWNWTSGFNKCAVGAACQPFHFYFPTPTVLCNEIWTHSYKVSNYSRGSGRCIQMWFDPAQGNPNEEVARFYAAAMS

Substance: wild-type (native) Clostridium septicum alpha toxin
- hFR Binding (percent of wild type) (% of wild type): 100
